Reference: the DeepSol protein solubility set

assay: soluble on expression in E. coli; label from the status in PepcDB or PDB records

Sequence	soluble on expression in E. coli
MGEFIGNEEFQNFMKATGFIQEFTRRLLERSSKNIIKIPDNLSNVNQLTCLVKQFLREQQDLAVKVEKVQENQKNLSDFVKEKLTNCNCHVQLDVRNLLAKEMKLQDLRQDDGLDFSIKLPSTSSTDFTVSLNQVVDADAQQRFDLELLKMFGAGNIPHFQPPPDLYQHHHIPHTSQQVAQENLAMLANVPKLDDNNAYFDTFSPEKSGKRAKKRAAPSSAHEAQPNNGPYKCRDCEKTFRQKHGLNQHLLTHETNGAFECDGCGKRYSRQESVYRHQRSTPCTKYQNLTTVEHDDTGALF	not soluble
MGSDKIHHHHHHMTRSTIGGKRFEPIPARFSSIGAGLMNIKQLEVLRTLLSTGSTIATAKAMGLSQSGISRLLAQLEADLSLTLFARDKGRLIPTPEAALLARDAENVLLAVDRMSGHAEDLRNGAAGPEIVRIGLPSSMWENFAPAMLIDYVRDFPGVRIETFFETTTAINKLVGERVIDLGFLRMEGEIGPGIDVERVATGKSVCVVREDHPLADLQEITVKDLRNIPLILIGRQRPNRMALDQVFKKAGVKPMVKIETHTNSSACAYVAHGLGVTIISSFYANLYRHLPVVARPFVPQATQEFGLARASGAPLSIAAQALSNALKREIQLSQKID	not soluble
MGSDKIHHHHHHMINQLMRSVDNLPAFPVTVIKVMDLLSRDDYSIAEVARVISFDQSITANILKVSNSAYFSFGRPIRTVLEAVARLGKENVIRAVQTAGISKFYKTTARGYVSVAADLWEHSVAVALMSQILSRRIYGREDSVLYSAALLHDVGKIIIGAYVYESLEKIQRVVDGRKCSFIEAEEEVIGINHAELGGKITGYWNLPEEICDAIAFHHRPDILDKNSVDMQWIVYLADQLCMMTGIGNGIDGLAYLGISEVLKKFNLREKDLETNMMNLMDDLRNARSILDMV	not soluble
MGSDKIHHHHHHMADAPIDIFQSILSRKSIRAFTDQPVTQETIREILKLAARAPSGTNLQPWQVIVLTGKILQKVGQELSQLVLSGIKGEREYHYYPRQWREPYLSRRRKVGLDLYKSLGIQKGDQEKMLHQKAKNFLFYGAPVGLLFTIDHDMEMGSWLDLGMFMQTIMLAARGFGLDTCAQAAFADYHKQIRSLLSVPSDRHIICGMALGYRDMNAPENNFETEREPIDNFVHFIKSYP	not soluble
MGSDKIHHHHHHMYRVMFVDDEYMILEGLKWIIPWQELGFEIVKTARSAQEALAFLETESIDVLLTDITMPEMSGIELIEQAKKKGHQFISLILSGYQEFDYVKKGMALQVQDYLLKPVNKQELLANIQRIKIELDQQKKSHARVRLYLENGLMRWLNDEISEGEYEELMQQFATIKPGDFTVLLVEAEMSFLETIKELFMKKGQLLFIESWMSTYHQLLLIYKGARQEAFLFIREIEAILAGQGQIFVGESVNEWETVYESYEKVKQLQAIETFYQEFLPNNQKEQMNRSAEDFTFLAFNQALMIGDMQTIQRELDAIFNQLSQQHATPEYVRYVVFLLFSDISRQYPTVLEENYEKIVEEIRASNNLNTLYALMQQVLAEVKNKPKIKKYSESVSQAVERIEQGYLEELNLKTVADELHLNPSYLGQIFKKETKRSFSQYLNQVRTKHAQKLLLYTDDTINEISEKVGFNNTNYFSKMFKKLNGITPKEFREQYQSNYAGVEE	not soluble
GMVYVDPDRFDELVAEALDGIPEEFARAMRNVAVFVEDEPDDPELLGLYVGIPLTERTTAYGGVLPDRIIIYRNTICALCETESEVIDEVRKTVVHEIAHHFGIDDERLHELGY	soluble
AEVLLGSSDGGLAFVPSDLSIASGEKITFKNNAGFPHNDLFDKKEVPAGVDVTKISMPEEDLLNAPGEEYSVTLTEKGTYKFYCAPHAGAGMVGKVTVN	soluble
MTQAVMLQGTASDVGKSVLAAGLCRIFYQDGLRTAPFKSQNMALNSGITPDGKEMGRAQIFQAEAAGITPDVRMNPVLLKPTSDRQAQVVLMGKVATNMDAVSYHDYKPRLREQILAVYNSLAQEYDVIVLEGAGSPAEINLRDRDIVNMGMAEMAQCPVILVADIDRGGVFAAIYGTLALLHKQERDRVKGVIINKFRGDVALLYSGIEQIESLTGVPVLGVMPWLDVDLEDEDGVALQNDKYRGNAPRDITIAIVQLPHISNFTDFNALAAQPDVRIRYIRRPEALTDVDLVILPGSKNTLSDLAWLRESGMADAVLQTHRQGVPVMGICGGYQMLGDTIVDEVESGLGTQPGLGLLNTITRFAQDKTTTQVNATMSGELPGWLAAAAGLPVRGYEIHMGETVLQEGCCTAMTLQKNGCSVADGAVTADGLAFGTYLHGLFDSDAFTRAVVNGLRARKGLAPWETTFCYADHKARQFDLLAEAMRQHIDIDKIYTIMQQHQEPV	not soluble
GPGSMDTECLRARHSECIDLASVQLRRQLMDSGIPFTEAEIAALPARFVELLISRLEMFRQREVETRAAVDKCRRETEVEEMRFEQLREATERVQGEKRIISSKISAAVSEYMREDKLEKEKQRERHNELQEVFRQVEKKEAEHRREIIEMERLRKMLKKVTK	not soluble
MSLNRIAFSAAHVVADPLAASDPWLEAAIDWDHTIAYRQRLWDLGLGVAEAMDTAQRGMGLDWPTSLDLIRRSVEAAKAHGPEALVFSGAGTDHLAPEAARSLDDVIRAYEEQVAAVEKVGGRIILMASRALARIGTSAADYETVYGRILSQVREPVIIHWLGDMFDPALAGYWGTRDLDAAMDTAVAIINAHAAKVDGVKISLLDKDKEIAMRRRLDPAVRMYTGDDFNYAELVAGDAQGYSHALLGIFDAIAPAASAALTALAAGDEAGFHDILAPTVPLSRHIFRAPTRFYKTGVVFMAYLNGHQDHFTMVGGQESARSTLHLAELFRLADRAGLLTDPDLAVQRMRAVLAVRGVEAEGHHHHHH	not soluble
MGSDKIHHHHHHMITTSNITMQFGVKPLFEKVSVKFGEGNRYGLIGANGSGKSTFMKILGGDLEQTAGEVAIENGLRLGKLRQDQFGYEDQRVIDVVMMGHTEMWAAMSERDAIYANLEATEDDYMRAADLEAKFAEYDGYTAEARAGELLMGVGIPVEQHFGPMSEVAPGWKLRVLLAQALFSNPDILLLDEPTNNLDINTIRWLEHVLNERNSTMIIISHDRHFLNSVCTHMADLDYNTIRIYPGNYDDYMIASAQARERQLSSNSKAKERIQELQEFVARFSANKSKARQATSRLKQVDKLKSEMVEVKPSSRQNPFIRFEMDDKFKLHRQAVEVEGLSKAYDNKVLFKDLNLILEAGARLAIIGPNGAGKTSLIKLLAGAFEPAYAEGLTADRGTIKWAEKAQIGYFAQDHEADFDSDATLTEWMREWGQEGDDEQVIRGTLGRLLFGGDEVGKPVRVLSGGEKGRMLYGKLILQKPNVMIMDEPTNHMDMESIESLNMALEKYKGTLIFVSHDRQFVSSLATHVLELDGKGGYDYYTGNYEDYLASKGLE	not soluble
MSLDNMAKRQTKDIETIIQKIYYAKNRHLGTYTPLKNNSELEEINNYIYDLFESNEQLIHSIEHTERRLRDIQLKEIERQFQPHFLFNTMQTIQYLITLSPKLAQTVVQQLSQMLRYSLRTNSHTVELNEELNYIEQYVAIQNIRFDDMIKLHIESSEEARHQTIGKMMLQPLIENAIKHGRDTESLDITIRLTLARQNLHVLVCDNGIGMSSSRLQYVRQSLNNDVFDTKHLGLNHLHNKAMIQYGSHARLHIFSKRNQGTLICYKIPLSRGNVDVEGHHHHHH	not soluble
MSLIRKREFDMPIKIPDTLPAFETLVHEGVRVMTETAAIRQDIRPLQIGLLNLMPNKIKTEIQMARLVGASPLQVELSLIRIGGHRAKNTPEEHLLSFYQTWEEVRHRKFDGFIITGAPIELLDYEDVTYWNEMQQIFEWTQTNVHSTLNVCWGAMAAIYHFHGVPKYELKEKAFGVYRHRNLSPSSIYLNGFSDDFQVPVSRWTEVRRADIEKHPELEILMESDEMGVCLAHEKAGNRLYMFNHVEYDSTSLADEYFRDVNSGVPIKLPHDYFPHNDPELAPLNRWRSHAHLFFGNWINEIYQTTPYDPQAIGKLAAEGHHHHHH	soluble
MGSDKIHHHHHHMSIAIIIATHGVAAEQLLKTTEMLIGEQENVATIDFVSGENAETIMTKYQEKLSTTLAHCDEVLFLVDTWGGSPFNAANRVIGDNTNMDIVTGVNVPMLVETFMARDDNPSLQELVSIALETGRAGVRALKYEEKSAETTALSQPVPEQPQIAVKQQEGNLIVGLARIDDRLIHGQVATRWTKESRVTRIVVVNDDVAKDQVRSTMLKSVAPPGVTAHVVNIEKMIRVYNNPEYANERMMLLFTNPTDVLRLLEAGVDMKSINVGGMAYKDGKKMITSAVAVDDKDIAAFKAIDAMGIELDVRKVSNDSRQYMMDLLKKNNLI	not soluble
MKATVSTIDNRGNLGKVLKDVTSKDSIKGYTVAAATAGVAQGLNYNPSAMGLDAKSLQTVAVKVTADALIKTAVYGGSFKDNLASAAAGTAASIGGAYGAGKIGDLGLTEGGLAKIALHAGLGGLLSEAMGGDFRTGAIAGGANELLVGVLGDKLEHHHHHH	not soluble
MADTGEKDTETTASGTDGHSKEALAVISMLHECGIQEFDPRVVSMLMDVQYAVTSKILQMSSGLSRHAEKAQIEAEDVQTAADMLGVLTTNAPDREKILQLANDKNQQPLPQIRHNYGLKLPNDRFCQLQQNFVYKADDSYQPMEMQQVTHQPHIIEPPTQVLRPEHVQNMLKRRAPDDDFDS	not soluble
MAHHHHHHMHDIGGAELVVAVHQPAAASHGQPFCHEHGKAKTESAGHNLQHAAAIHRNVPKHTRALVVFVARRTPQAVLYGEHGAAADTEVRRKSVHHVRLRPDNAVVHVEHTGQVRTEAALHEDSRARFPATQQRRARHDKPRRQKPDAVQNKRGAVPESRTARGRQHVLRPANRRAQR	soluble
MGSDKIHHHHHHMKKILVVGDFIKGSGLTNYLLNIYSSLPKDEFLISCVSYSGQHNIDTVLEEKKWEKFEVTPITQDIIKHFKDWNNFFKLHGNDFDEIHFNYSAPWNFIAILLAKLKSKAKIIVQSHNNYYSKQPKGLQKKVLAVLNVTGRTVIGRCSDIRLAVSEDSAQWMFGKRNVQILKNGINLKDFEYQPGPREELRKSIGINKGKKIIGFVGTLEKRKNPYFAIECLKKLNKEYILLMFGQGVLKKDLEKKIMDEGLEHRIKLMGVVDNLNEWYSVFDLFLFPSLTEGFGFALLEAQANGLKCFSSTSIPKEAKITNDVTSLNLSEINKWIDEIEKTSINDRERRSKQNCRIIEKKGFSIENTSKQFKRILLGDLS	not soluble
GSHMTGISRETSSDVALASHILTALREKQAPELSLSSQDLELVTKEDPKALAVALNWDIKKTETVQEACERELALRLQQTQSLHSLRSISASKASPPGDLQNPKRARQDPT	soluble
MRTTSRALMYGLYDEFQISLKCPRSPPNSSFSICHAQAAFLSGVCEAMLCPLERVQVLLQTTIFHDKFKNTLHTFNRLRDYGYREYYRGFSVILIRNSLSNTIFFTLRDPLKQKIVGIPQAGRLPESLQQLIGDFVAGSLLGATISTAFFPLGVIKNHMQAKVGVKYESGFKVFRDVWQLRNRSLRGLYLGVHLNFTRSLVAWGIINSMYGILRRALAPFE	not soluble
MGKLYVFDHPLIQHKITYIRDKNTGTKDFRELVDEVASLMAFEITRDLPLKDIEIETPVSKATTKVIAGKKLGLIPILRAGLGMVDGILKLIPAAKVGHVGLYRDPKTLQPVEYYVKLPTDVEERDFIVLDPMLATGGSAAEAINSLKKRGAKQIKLMCIVAAPEGVKVVQEEHPDVDIYVAALDEKLNDHGYVVPGLGDAGDRLFGTK	not soluble
MGRLFVVNLEGKIYSCKHCKTHLATYEDIISKSFHCKHGKAYLFNKVANVSIGETEERLMMTGKHTVADIFCVSCGSIVGWKYETAHEKNQKYKEGKSVLERFKISGPDGSNYWVSSHGRHIGGSDADDA	soluble
